Experimental data as given in IntAct's records for PubMed 16424905.

B1: AN1-type zinc finger protein 5 (Homo sapiens), O76080 (parent)
chain: MAQETNQTPGPMLCSTGCGFYGNPRTNGMCSVCYKEHLQRQQNSGRMSPMGTASGSNSPTSDSASVQRADTSLNNCEGAAGSTSEKSRNVPVAALPVTQQMTEMSISREDKITTPKTEVSEPVVTQPSPSVSQPSTSQSEEKAPELPKPKKNRCFMCRKKVGLTGFDCRCGNLFCGLHRYSDKHNCPYDYKAEAAAKIRKENPVVVAEKIQRI

Variants of: B1
Settings: with ubc_human UBC

effect of a mutation on the interaction | Variant
disrupting interaction | C30A
disrupting interaction | C33A

Variants of: B1
Settings: with psmd6_human PSMD6, Q15008
Sequence of psmd6_human PSMD6, Q15008 (Q15008 whole entry): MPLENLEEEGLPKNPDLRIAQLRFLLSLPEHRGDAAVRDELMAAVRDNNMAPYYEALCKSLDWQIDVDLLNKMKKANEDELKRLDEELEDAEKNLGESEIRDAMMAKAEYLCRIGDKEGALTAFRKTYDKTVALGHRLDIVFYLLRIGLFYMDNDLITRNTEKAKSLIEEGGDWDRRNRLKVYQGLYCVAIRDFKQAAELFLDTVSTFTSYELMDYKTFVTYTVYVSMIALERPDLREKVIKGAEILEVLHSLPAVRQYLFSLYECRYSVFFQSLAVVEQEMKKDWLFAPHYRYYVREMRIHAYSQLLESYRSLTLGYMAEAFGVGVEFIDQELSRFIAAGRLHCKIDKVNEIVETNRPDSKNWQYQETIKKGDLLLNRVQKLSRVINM

effect of a mutation on the interaction | Variant
disrupting interaction | C170A
disrupting interaction | C175A

More lines, now with the values behind:

Variant | effect of a mutation on the interaction
C30A | disrupting interaction
C33A | disrupting interaction
